Here are results for six molecules from patent US20260226131A1 (SHANGHAI INSTITUTE OF MATERIA MEDICA CHINESE ACADEMY OF …, published 2026).

Experiment [1] concerns the target IGF-1R-His tag (Sino Biological), human insulin-like growth factor 1 receptor (human) (UniProt P08069). Nature of the experiment: BLI (Octet), IGF-1R-His captured on Ni-NTA probe, 1:1 fit. A general note: BLI is a label-free optical method that tracks binding on a fibre tip over time.
The target in experiment [2] is T1, human insulin receptor extracellular domain protein (hIRB-ECD, Sino Biological Inc.) (human, UniProt P06213 28-956).
T1 construct: extracellular domain; Bought protein coated on the ELISA plate
In words: ELISA, coated hIRB-ECD, anti-human IgG HRP detection. (In general: In an ELISA, binding on a coated surface is turned into a signal by an enzyme label.)

Experiment [3] addresses T2, IGF-1R-His tag (Sino Biological), human insulin-like growth factor 1 receptor (human, UniProt P08069 31-932, limits assumed).
T2 construct: Bought recombinant protein captured on Ni-NTA probes; also called His-tagged IGF-1R protein; not shown: His tag
In words: BLI (Octet), IGF-1R-His captured on Ni-NTA probe, 1:1 fit.

For experiment [4], the target named is T3, human insulin receptor isoform A (hIRA), membranes of CHO cells overexpressing hIRA (human, UniProt P06213-2 28-1370).
T3 construct: whole, on cells; The assay used cell membrane preparations
In words: competition with [125I]-insulin, CHO-hIRA membranes (SPA).

Experiment [5] deals with T4, human insulin receptor isoform B (hIRB), membranes of CHO cells overexpressing hIRB (human, UniProt P06213 28-1382).
T4 construct: whole, on cells; The assay used cell membrane preparations
In words: competition with [125I]-insulin, CHO-hIRB membranes (SPA).

The term Kd denotes a measure of binding affinity in units of concentration. A higher Kd goes with lower affinity. As usually defined, the koff is a measure of how fast the partners let go of each other. Low readings indicate a long-lived complex, high ones a short-lived complex. Broadly, the kon is the rate constant with which the complex forms. The EC50 is the concentration needed to bring the measured effect to its halfway point. Read a high EC50 as a less potent agent. The IC50 is the concentration that inhibits the measured activity by half.

Consider “glargine insulin (Lantus, Sanofi) (ligand)”, for which, in experiment [1], the dissociation constant (Kd) came out at 764 nM, the koff came out at 0.0192 s⁻¹ and the kon is 25100 M⁻¹ s⁻¹.

B1: Insulin-Fc fusion protein of Example 8 (des B27-30+A3-A+A21G) (Fc fusion)
chain: FVNQHLCGSHLVEALYLVCGERGFFYGGVGGGGIAEQCCTSICSLYQLENYCGGGGGSGGGGSGGGGSGGGGSERKSSVESPPSPAPPVAGPSVFLFPPKPKDTLMISRTPEVTCVVVDVSQEDPEVQFNWYVDGVEVHNAKTKPREEQFNSTFRVVSVLTVLHQDWLNGKEYKCKVSNKGLPSSIEKTISKTKGQPREPQVYTLPPSREEMTKNQVSLTCLVKGFYPSDIAVEWESNGQPENNYKTTPPMLDSDGSFFLYSKLTVDKSRWQQGNVFSCSVMHEALHNHYTQKSLSLSLG
As to B1, the EC50 in experiment [2] is 314 nM.

B2: Insulin-Fc fusion protein of Example 1 (B27E+A3-A+A21G) (Fc fusion)
chain: FVNQHLCGSHLVEALYLVCGERGFFYEPKTGGVGGGGIAEQCCTSICSLYQLENYCGGGGGSGGGGSGGGGSGGGGSERKSSVESPPSPAPPVAGPSVFLFPPKPKDTLMISRTPEVTCVVVDVSQEDPEVQFNWYVDGVEVHNAKTKPREEQFNSTFRVVSVLTVLHQDWLNGKEYKCKVSNKGLPSSIEKTISKTKGQPREPQVYTLPPSREEMTKNQVSLTCLVKGFYPSDIAVEWESNGQPENNYKTTPPMLDSDGSFFLYSKLTVDKSRWQQGNVFSCSVMHEALHNHYTQKSLSLSLG
As to B2, in experiment [2], the response was half-maximal at 160 nM (EC50). In addition, in experiment [3], binding was put at a Kd of 6490 nM, the off-rate (koff) was 0.00336 s⁻¹ and the kon stood at 518 M⁻¹ s⁻¹. Besides, in experiment [4], the IC50 was 102 nM and the “Maximum Receptor Binding Activity (%) Relative to RHI” value was 78.7%. Moreover, in experiment [5], the half-maximal inhibitory concentration (IC50) was determined as 509 nM and the “Maximum Receptor Binding Activity (%) Relative to RHI” value worked out at 74.3%.

B3: Insulin-Fc fusion protein of Example 6 (B16-A+A3-A+A21G) (Fc fusion)
chain: FVNQHLCGSHLVEALALVCGERGFFYTPKTGGVGGGGIAEQCCTSICSLYQLENYCGGGGGSGGGGSGGGGSGGGGSERKSSVESPPSPAPPVAGPSVFLFPPKPKDTLMISRTPEVTCVVVDVSQEDPEVQFNWYVDGVEVHNAKTKPREEQFNSTFRVVSVLTVLHQDWLNGKEYKCKVSNKGLPSSIEKTISKTKGQPREPQVYTLPPSREEMTKNQVSLTCLVKGFYPSDIAVEWESNGQPENNYKTTPPMLDSDGSFFLYSKLTVDKSRWQQGNVFSCSVMHEALHNHYTQKSLSLSLG
In experiment [2], B3 had an EC50 of 445 nM.

B4: Insulin-Fc fusion protein of Example 5 (B5-A+A21G) (Fc fusion)
chain: FVNQALCGSHLVEALYLVCGERGFFYTPKTGGVGGGGIVEQCCTSICSLYQLENYCGGGGGSGGGGSGGGGSGGGGSERKSSVESPPSPAPPVAGPSVFLFPPKPKDTLMISRTPEVTCVVVDVSQEDPEVQFNWYVDGVEVHNAKTKPREEQFNSTFRVVSVLTVLHQDWLNGKEYKCKVSNKGLPSSIEKTISKTKGQPREPQVYTLPPSREEMTKNQVSLTCLVKGFYPSDIAVEWESNGQPENNYKTTPPMLDSDGSFFLYSKLTVDKSRWQQGNVFSCSVMHEALHNHYTQKSLSLSLG
For the molecule B4, it took 160 nM to reach a half-maximal effect in experiment [2] (EC50).

B5: Insulin-Fc fusion protein of Example 7 (B25-T+B27-E A3-A+A21G) (Fc fusion)
chain: FVNQHLCGSHLVEALYLVCGERGFTYEPKTGGVGGGGIAEQCCTSICSLYQLENYCGGGGGSGGGGSGGGGSGGGGSERKSSVESPPSPAPPVAGPSVFLFPPKPKDTLMISRTPEVTCVVVDVSQEDPEVQFNWYVDGVEVHNAKTKPREEQFNSTFRVVSVLTVLHQDWLNGKEYKCKVSNKGLPSSIEKTISKTKGQPREPQVYTLPPSREEMTKNQVSLTCLVKGFYPSDIAVEWESNGQPENNYKTTPPMLDSDGSFFLYSKLTVDKSRWQQGNVFSCSVMHEALHNHYTQKSLSLSLG
In experiment [2], B5 came in with an EC50 of 699 nM.
